# Data: US20090068214A1
# B1: HPV 16 E2 69-77 peptide (…) (peptide)
# peptide: ALQAIELQL
# modifications: not checked
# Target: HLA-A2 on T2 cells, P30376
binder,measurement,value
B1,peptide concentration at fluorescence index (FI) 0.5,50 µM
